Results from patent US20220025022A1.

T1: CFA/I fimbrial protein (with adhesin subunit CfaE) on ETEC strain H10407 (enterotoxigenic Escherichia coli (ETEC)) (UniProt P25734)
T1 sequence (looked up): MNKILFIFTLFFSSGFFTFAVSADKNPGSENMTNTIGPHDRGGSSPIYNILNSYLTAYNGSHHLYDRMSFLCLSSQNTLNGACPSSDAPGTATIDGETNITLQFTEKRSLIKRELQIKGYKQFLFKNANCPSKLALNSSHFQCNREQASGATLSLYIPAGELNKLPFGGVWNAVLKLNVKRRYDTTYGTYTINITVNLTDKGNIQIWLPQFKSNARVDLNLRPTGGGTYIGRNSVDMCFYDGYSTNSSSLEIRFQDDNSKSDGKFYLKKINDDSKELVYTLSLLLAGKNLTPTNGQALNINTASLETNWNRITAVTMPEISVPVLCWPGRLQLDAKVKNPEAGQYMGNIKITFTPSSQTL


Experiments:
[1] = molecular target: CS6 on ETEC strain #100001 (enterotoxigenic Escherichia coli (ETEC)); test: cell-based or functional assay
[2] = molecular target: CS14 on ETEC strain #400599 (enterotoxigenic Escherichia coli (ETEC)); test: cell-based or functional assay
[3] = molecular target: CS21 on ETEC strain #100171 (enterotoxigenic Escherichia coli (ETEC)); test: cell-based or functional assay
[4] = molecular target: CS4 on ETEC strain (enterotoxigenic Escherichia coli (ETEC)); test: cell-based or functional assay
[5] = molecular target: CS3 on ETEC strain #100483 (enterotoxigenic Escherichia coli (ETEC)); test: cell-based or functional assay
[6] = molecular target: CS17 on ETEC strain (enterotoxigenic Escherichia coli (ETEC)); test: cell-based or functional assay
[7] = molecular target: CS19 on ETEC strain #204648 (enterotoxigenic Escherichia coli (ETEC)); test: cell-based or functional assay
[8] = molecular target: T1, CFA/I fimbrial protein (with adhesin subunit CfaE) on ETEC strain H10407 (enterotoxigenic Escherichia coli (ETEC)); test: cell-based or functional assay
[9] = molecular target: CS1 on ETEC strain #200145 (enterotoxigenic Escherichia coli (ETEC)); test: cell-based or functional assay
[10] = molecular target: CS5 on ETEC strain #204348 (enterotoxigenic Escherichia coli (ETEC)); test: cell-based or functional assay
[11] = molecular target: CS2 on ETEC strain #201546 (enterotoxigenic Escherichia coli (ETEC)); test: cell-based or functional assay
[12] = molecular target: MBP-CfaE-N (recombinant N-terminal adhesin domain of CfaE fused to an MBP tag) (enterotoxigenic Escherichia coli (ETEC)) (UniProt P25734); test: SPR (Biacore T200), CfaE on CM5 chip, VHH injected, 25 C, 1:1 model

Row | Binder | MRHA IC100 [1] [µg/mL] | MRHA IC100 [2] [µg/mL] | MRHA IC100 [3] [µg/mL] | MRHA IC100 [4] [µg/mL] | MRHA IC100 [5] [µg/mL] | MRHA IC100 [6] [µg/mL] | MRHA IC100 [7] [µg/mL] | MRHA IC100 [8] | MRHA IC100 [9] [µg/mL] | MRHA IC100 [10] [µg/mL] | MRHA IC100 [11] [µg/mL] | Kd [12] [nM] | koff [12] [s⁻¹] | kon [12] [M⁻¹ s⁻¹] | Caco2 adhesion assay: concentration at which adhesion was inhibited [8] [µM]
1 | VHH antibody 1H4 (monomeric) (VHH) VHH: EVQLVESGGGLVQAGGSLRLSCAASSRTFNHYNIGWFRQAPGKEREFAAAITWNGRSTLYADSVKGRFTISRDNAKNTVYLQMNSLKPEDTAVYYCATLTTWEHKWEYNSQGQGTQVTVSS | 25 | 100 | 25 | 25 | 100 | 6.25 | 100 | 200 µg/mL | 100 | 3.12 | 100 | 18.3 | 0.000513 | 28100 | –
2 | trimeric 2R215 (VHH) QVQLQESGGGLVQAGGSLRLSCAASGNIFQDAEMGWYRQAPGKEREFVATIAYGGNTNYADSVKGRFTISRDNAKNTVYLQMNSLKPEDTAVYYCAVYTGVYYDRTTGGYVAFEYWGQGTQVTVSSGGGGSGGGGSGGGGSQVQLQESGGGLVQAGGSLRLSCAASGNIFQDAEMGWYRQAPGKEREFVATIAYGGNTNYADSVKGRFTISRDNAKNTVYLQMNSLKPEDTAVYYCAVYTGVYYDRTTGGYVAFEYWGQGTQVTVSSGGGGSGGGGSGGGGSQVQLQESGGGLVQAGGSLRLSCAASGNIFQDAEMGWYRQAPGKEREFVATIAYGGNTNYADSVKGRFTISRDNAKNTVYLQMNSLKPEDTAVYYCAVYTGVYYDRTTGGYVAFEYWGQGTQVTVSSHHHHHH | – | – | – | – | – | – | – | 2.5 µM | – | – | – | – | – | – | 0.567
3 | dimeric 2R215 (VHH) QVQLQESGGGLVQAGGSLRLSCAASGNIFQDAEMGWYRQAPGKEREFVATIAYGGNTNYADSVKGRFTISRDNAKNTVYLQMNSLKPEDTAVYYCAVYTGVYYDRTTGGYVAFEYWGQGTQVTVSSGGGGSGGGGSGGGGSGGGGSGGGGSGGGGSQVQLQESGGGLVQAGGSLRLSCAASGNIFQDAEMGWYRQAPGKEREFVATIAYGGNTNYADSVKGRFTISRDNAKNTVYLQMNSLKPEDTAVYYCAVYTGVYYDRTTGGYVAFEYWGQGTQVTVSSHHHHHH | – | – | – | – | – | – | – | 1.25 µM | – | – | – | – | – | – | 1.8
